No end group written: not given here.
Key:
[1] = target: rat neuropeptide FF receptor (NPFF1) (rat) (UniProt Q9EP86); test: competition vs [125I]D-Tyr-NPFF, COS-7 membranes (SEM 0; may be a floor value)
[2] = target: rat spinal cord membrane receptor; test: competition binding, rat spinal cord membranes (SEM 0; may be a floor value)
[3] = target: rat spinal cord membrane receptor; test: competition binding, rat spinal cord membranes

Sequence of rat neuropeptide FF receptor (NPFF1) (rat) (Q9EP86 whole entry): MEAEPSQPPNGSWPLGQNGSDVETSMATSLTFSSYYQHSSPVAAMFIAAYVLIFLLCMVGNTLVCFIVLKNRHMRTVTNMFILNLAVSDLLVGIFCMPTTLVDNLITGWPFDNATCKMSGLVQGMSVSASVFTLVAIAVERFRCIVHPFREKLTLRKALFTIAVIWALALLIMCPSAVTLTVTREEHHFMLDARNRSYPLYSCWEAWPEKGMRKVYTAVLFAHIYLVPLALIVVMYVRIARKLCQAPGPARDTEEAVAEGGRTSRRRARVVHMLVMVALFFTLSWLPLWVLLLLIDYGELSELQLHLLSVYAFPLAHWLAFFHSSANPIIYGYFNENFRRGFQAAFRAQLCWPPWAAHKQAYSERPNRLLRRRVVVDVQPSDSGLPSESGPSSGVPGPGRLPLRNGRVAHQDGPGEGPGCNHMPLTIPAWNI

Row | pKi [1] | pKi [2] | pKi [3] | Molecule
1 | 5 | 5 |  | Met5-Arg6-Phe7-Enk-OH (peptide)
2 | 5 |  |  | Tyr-MIF-1 (peptide)
3 |  |  | 9.05 | rat NPFF (FLFQPQRF-NH2) (peptide)
4 |  |  | 6.39 | PDVDHVFLRF-NH2 [Schisto(FLRFNH2) (Pro-Asp-Val-Asp-His-Val-Phe-Leu-Arg-Phe-amide)]
5 |  |  | 9 | AGEGLSSPFWSLAAPQRF-NH2 [rat A-18-F-amide (…-NH2)]
6 |  |  | 7.96 | H-KHQYLRF-NH2 [AF-2 (H-Lys-His-Gln-Tyr-Leu-Arg-Phe-NH2)]
7 |  |  | 7.56 | H-KNQFIRF-NH2 [AF-1 (FMRF-like peptide H2N-Lys-Asn-Gln-Phe-Ile-Arg-Phe-NH2)]

Reference: patent US6849727
